± gives the uncertainty stated by the source.
Assay: abundance fitness (aPCA) (normalised: wild type 0, dead -1); higher = more abundant; growth selection in yeast, the domain comes from the species named
Conditions: Homo sapiens

| Substance | abundance fitness |
| --- | --- |
| DnaJ homolog subfamily B member 1 K60C, P25685 | -0.696 ± 0.21 |
| DnaJ homolog subfamily B member 1 K60D, P25685 | -0.442 ± 0.13 |
| DnaJ homolog subfamily B member 1 K60E, P25685 | -0.159 ± 0.14 |
| DnaJ homolog subfamily B member 1 K60G, P25685 | -0.325 ± 0.073 |
| DnaJ homolog subfamily B member 1 K60H, P25685 | -0.171 ± 0.082 |
| DnaJ homolog subfamily B member 1 K60I, P25685 | -0.654 ± 0.16 |
| DnaJ homolog subfamily B member 1 K60L, P25685 | -0.426 ± 0.052 |
| DnaJ homolog subfamily B member 1 K60M, P25685 | -0.462 ± 0.11 |
| DnaJ homolog subfamily B member 1 K60N, P25685 | -0.311 ± 0.098 |
| DnaJ homolog subfamily B member 1 K60P, P25685 | -0.352 ± 0.17 |
| DnaJ homolog subfamily B member 1 K60Q, P25685 | -0.128 ± 0.085 |
| DnaJ homolog subfamily B member 1 K60S, P25685 | -0.216 ± 0.072 |
| DnaJ homolog subfamily B member 1 K60T, P25685 | -0.298 ± 0.09 |
| DnaJ homolog subfamily B member 1 K60V, P25685 | -0.706 ± 0.11 |
| DnaJ homolog subfamily B member 1 K60Y, P25685 | -0.575 ± 0.29 |
| DnaJ homolog subfamily B member 1 L9A, P25685 | -0.892 ± 0.26 |
| DnaJ homolog subfamily B member 1 L9C, P25685 | -0.823 ± 0.11 |
| DnaJ homolog subfamily B member 1 L9E, P25685 | -0.631 ± 0.13 |
| DnaJ homolog subfamily B member 1 L9G, P25685 | -0.855 ± 0.074 |
| DnaJ homolog subfamily B member 1 L9H, P25685 | -1.12 ± 0.12 |
| DnaJ homolog subfamily B member 1 L9I, P25685 | -0.546 ± 0.13 |
| DnaJ homolog subfamily B member 1 L9K, P25685 | -1.26 ± 0.23 |
| DnaJ homolog subfamily B member 1 L9M, P25685 | -0.412 ± 0.16 |
| DnaJ homolog subfamily B member 1 L9N, P25685 | -0.664 ± 0.11 |
| DnaJ homolog subfamily B member 1 L9P, P25685 | -0.726 ± 0.082 |
| DnaJ homolog subfamily B member 1 L9Q, P25685 | -0.649 ± 0.095 |

| Substance | abundance fitness |
| --- | --- |
| DnaJ homolog subfamily B member 1 L9R, P25685 | -1.01 ± 0.095 |
| DnaJ homolog subfamily B member 1 L9S, P25685 | -0.681 ± 0.079 |
| DnaJ homolog subfamily B member 1 L9T, P25685 | -0.69 ± 0.14 |
| DnaJ homolog subfamily B member 1 L9V, P25685 | -0.697 ± 0.17 |
| DnaJ homolog subfamily B member 1 L9W, P25685 | -1.25 ± 0.17 |
| DnaJ homolog subfamily B member 1 L9Y, P25685 | -0.818 ± 0.11 |
| DnaJ homolog subfamily B member 1 L11A, P25685 | -0.147 ± 0.078 |
| DnaJ homolog subfamily B member 1 L11C, P25685 | -0.018 ± 0.088 |
| DnaJ homolog subfamily B member 1 L11D, P25685 | -0.776 ± 0.16 |
| DnaJ homolog subfamily B member 1 L11E, P25685 | -0.5 ± 0.15 |
| DnaJ homolog subfamily B member 1 L11F, P25685 | -0.949 ± 0.11 |
| DnaJ homolog subfamily B member 1 L11G, P25685 | -0.773 ± 0.071 |
| DnaJ homolog subfamily B member 1 L11H, P25685 | -0.795 ± 0.15 |
| DnaJ homolog subfamily B member 1 L11I, P25685 | 0.015 ± 0.1 |
| DnaJ homolog subfamily B member 1 L11K, P25685 | -0.849 ± 0.19 |
| DnaJ homolog subfamily B member 1 L11M, P25685 | -0.423 ± 0.12 |
| DnaJ homolog subfamily B member 1 L11N, P25685 | -0.712 ± 0.12 |
| DnaJ homolog subfamily B member 1 L11P, P25685 | -0.759 ± 0.12 |
| DnaJ homolog subfamily B member 1 L11Q, P25685 | -0.464 ± 0.14 |
| DnaJ homolog subfamily B member 1 L11R, P25685 | -0.96 ± 0.075 |
| DnaJ homolog subfamily B member 1 L11S, P25685 | -0.381 ± 0.081 |
| DnaJ homolog subfamily B member 1 L11T, P25685 | -0.209 ± 0.11 |
| DnaJ homolog subfamily B member 1 L11V, P25685 | -0.041 ± 0.065 |
| DnaJ homolog subfamily B member 1 L11W, P25685 | -1.44 ± 0.15 |
| DnaJ homolog subfamily B member 1 L11Y, P25685 | -1.1 ± 0.13 |
| DnaJ homolog subfamily B member 1 L29A, P25685 | -0.167 ± 0.085 |

| Substance | abundance fitness |
| --- | --- |
| DnaJ homolog subfamily B member 1 L29C, P25685 | -0.119 ± 0.086 |
| DnaJ homolog subfamily B member 1 L29D, P25685 | -0.089 ± 0.16 |
| DnaJ homolog subfamily B member 1 L29E, P25685 | 0.067 ± 0.15 |
| DnaJ homolog subfamily B member 1 L29F, P25685 | -0.04 ± 0.077 |
| DnaJ homolog subfamily B member 1 L29G, P25685 | 0.01 ± 0.083 |
| DnaJ homolog subfamily B member 1 L29H, P25685 | -0.015 ± 0.12 |
| DnaJ homolog subfamily B member 1 L29I, P25685 | 0.116 ± 0.12 |
| DnaJ homolog subfamily B member 1 L29K, P25685 | -0.116 ± 0.08 |
| DnaJ homolog subfamily B member 1 L29M, P25685 | -0.234 ± 0.12 |
| DnaJ homolog subfamily B member 1 L29N, P25685 | -0.572 ± 0.3 |
| DnaJ homolog subfamily B member 1 L29P, P25685 | -0.461 ± 0.16 |
| DnaJ homolog subfamily B member 1 L29Q, P25685 | 0.086 ± 0.18 |
| DnaJ homolog subfamily B member 1 L29R, P25685 | -0.06 ± 0.077 |
| DnaJ homolog subfamily B member 1 L29S, P25685 | -0.138 ± 0.058 |
| DnaJ homolog subfamily B member 1 L29T, P25685 | -0.131 ± 0.072 |
| DnaJ homolog subfamily B member 1 L29V, P25685 | -0.052 ± 0.076 |
| DnaJ homolog subfamily B member 1 L29W, P25685 | -0.111 ± 0.068 |
| DnaJ homolog subfamily B member 1 L29Y, P25685 | -0.008 ± 0.089 |
| DnaJ homolog subfamily B member 1 L55C, P25685 | -0.788 ± 0.2 |
| DnaJ homolog subfamily B member 1 L55E, P25685 | -0.752 ± 0.099 |
| DnaJ homolog subfamily B member 1 L55F, P25685 | -0.649 ± 0.1 |
| DnaJ homolog subfamily B member 1 L55G, P25685 | -0.687 ± 0.081 |
| DnaJ homolog subfamily B member 1 L55H, P25685 | -0.686 ± 0.14 |
| DnaJ homolog subfamily B member 1 L55I, P25685 | -0.354 ± 0.11 |
| DnaJ homolog subfamily B member 1 L55K, P25685 | -0.781 ± 0.11 |
| DnaJ homolog subfamily B member 1 L55M, P25685 | -0.464 ± 0.11 |

| Substance | abundance fitness |
| --- | --- |
| DnaJ homolog subfamily B member 1 L55N, P25685 | -0.603 ± 0.17 |
| DnaJ homolog subfamily B member 1 L55P, P25685 | -0.705 ± 0.088 |
| DnaJ homolog subfamily B member 1 L55Q, P25685 | -0.747 ± 0.1 |
| DnaJ homolog subfamily B member 1 L55R, P25685 | -0.769 ± 0.069 |
| DnaJ homolog subfamily B member 1 L55S, P25685 | -0.524 ± 0.086 |
| DnaJ homolog subfamily B member 1 L55T, P25685 | -0.636 ± 0.1 |
| DnaJ homolog subfamily B member 1 L55V, P25685 | -0.347 ± 0.08 |
| DnaJ homolog subfamily B member 1 L55W, P25685 | -0.932 ± 0.1 |
| DnaJ homolog subfamily B member 1 L55Y, P25685 | -0.873 ± 0.16 |
| DnaJ homolog subfamily B member 1 N36A, P25685 | 0.038 ± 0.084 |
| DnaJ homolog subfamily B member 1 N36C, P25685 | 0.124 ± 0.17 |
| DnaJ homolog subfamily B member 1 N36D, P25685 | -0.221 ± 0.12 |
| DnaJ homolog subfamily B member 1 N36E, P25685 | -0.174 ± 0.084 |
| DnaJ homolog subfamily B member 1 N36F, P25685 | -0.415 ± 0.12 |
| DnaJ homolog subfamily B member 1 N36G, P25685 | -0.029 ± 0.08 |
| DnaJ homolog subfamily B member 1 N36H, P25685 | 0.002 ± 0.11 |
| DnaJ homolog subfamily B member 1 N36I, P25685 | -0.181 ± 0.13 |
| DnaJ homolog subfamily B member 1 N36K, P25685 | -0.112 ± 0.085 |
| DnaJ homolog subfamily B member 1 N36L, P25685 | 0.009 ± 0.054 |
| DnaJ homolog subfamily B member 1 N36M, P25685 | 0.035 ± 0.13 |
| DnaJ homolog subfamily B member 1 N36P, P25685 | -0.096 ± 0.086 |
| DnaJ homolog subfamily B member 1 N36R, P25685 | -0.14 ± 0.093 |
| DnaJ homolog subfamily B member 1 N36S, P25685 | 0.079 ± 0.06 |
| DnaJ homolog subfamily B member 1 N36T, P25685 | 0.092 ± 0.1 |
| DnaJ homolog subfamily B member 1 N36V, P25685 | -0.158 ± 0.088 |
| DnaJ homolog subfamily B member 1 N36W, P25685 | -0.097 ± 0.099 |

— the Human Domainome abundance scans (Beltran et al. 2025)
